Patent publication US20250011823A1, “Method for preparing ultra-low molecular weight Dendrobium oligosaccharides by enzymatic hydrolysis and its application” (Zhejiang A & F University, priority 2022, published 2025)

B1: THGH: T. halotolerans-derived glycosidase expressed in E. coli from the non-optimized gene SEQ ID NO.1 (protein)
chain: MRKRLTVAAATILALLASVFVFAQPANAATGFYVDNGRLYEAGGQEFVIRGVSHPHAWYAQETDSFAGIKSHGANTVRVVLSNGVRWTKNDAADVANVISLCKQNRLICMLEVHDTTGYGEQSGASTLDQAVDYWIEIQSALEGQEDYVLINIGNEPYGNDSATVADWASDTSAAIQRMRDAGFDHTLVVDAPNWGQDWSHTMRDNAGSVYTSDPTGNTVFSIHMYGVYEQGSTVTSYLEHFVNAGLPIMIGEFGHDHSDGNPDEDTIMAEAERLGLGYIGWSWSGNGGGVEYLDMVNNFDADSLTSWGQRIFYGANGISSTAEEATVYGGGAPTDPPTDPPAEGDCSADYTTVGSWGGGFQGEVTVTAGDSAISNWTVSWTFPGGQSVSHGWNASFGGGSPVTASNAPYNGQLGAGQSTTFGFIGSGSAPGSLTLTCTTD
modifications: Thermobifida halotolerans
B2: ThDPS: T. halotolerans-derived glycosidase (SEQ ID NO.3) expressed in E. coli from codon-optimized gene SEQ ID NO.2, with 6× His-tag (protein)
chain: B1 chain
modifications: 6xHis tag; Thermobifida halotolerans

Assay: ThDPS glycosidase activity determination (DNS method), hydrolysis of Dendrobium polysaccharides
Format: biochemical
Details: for enzymatic activity of expression product (hydrolysis of Dendrobium polysaccharides): crude supernatant of recombinant E. coli BL21 (DE3)
Protocol: Enzymatic activity definition: the amount of enzyme that can convert 1micromole of substrate per 1 minute at 37° C. is defined as one unit of enzymatic activity (U).
Enzymatic activity determination: ThDPS glycosidases can decompose Dendrobium polysaccharides into mannan oligosaccharides. The mannan oligosaccharide has reducibility and can undergo a certain chemical reaction with a DNS reagent under alkaline conditions to generate 3-amin-5-nitrosalicylic acid that is brownish-red under boiling conditions. The amount of reducing sugar generated can be measured with a spectrophotometer. The gradation of the color of the acid is related to the content of the reducing sugar.
Specific steps for enzymatic activity determination are as follows: a total reaction system is 2 mL, containing 1 mL of a Dendrobium polysaccharide solution with a concentration of 4 g/L, 200 μL of a phosphate buffer with a concentration of 200 mM, and 10 μL of an enzyme solution. 10 μL of distilled water is added to a control group, and water is replenished to a total volume of 2 mL for all reaction solutions. A mixed reaction solution is incubated at 37° C. for 30 min. After being taken out, the incubated mixed reaction solution is placed in a boiling water bath for 1 min to inactivate the enzymes. 2 mL of a DNS solution is added into each tube, and the tube is placed in the boiling water bath for 3 min, and then is rapidly cooled, and 1 mL of distilled water is added […]. The absorbance is measured at the wavelength of 540 nm to determine the enzymatic activity.
The recombinant bacteria constructed in step 1 were inoculated into a test tube containing 5 mL of LB medium (containing 100 ug/mL ampicillin), and underwent shake-flask culture at 37° C. and 200 r/min for 16 h. As a seed solution, the cultured bacterial solution was transferred into 100 mL of LB liquid medium (containing 100 ug/mL ampicillin) with an inoculum size of 1%, and underwent shake-flask culture at 37° C. and 200 rpm until OD600 was 0.6. 0.1 mM of IPTG was added to induce expression, and shaking culture was carried out for 24 h at 37° C. and 200 rpm. The obtained fermentation broth was centrifuged at 8000×g and 4° C. for 10 min, the supernatant was removed, and bacterial cells were collected. The bacterial cells were resuspended with 8 mL of 50 mM PBS of pH=7.0. After ultrasonic crushing, centrifugation was carried out for 10 min at 4° C. and 12000×g, precipitates were removed, the supernatant was collected for the hydrolysis reaction of Dendrobium polysaccharides, and hydrolysis products were detected by using a DNS method.
By taking Dendrobium polysaccharides as a substrate, the enzymatic property of ThDPS was characterized. • 1. 0.2 g, 0.4 g, 0.8 g, 1.2 g, 1.6 g, 2.0 g, 2.4 g, and 3 g of Dendrobium polysaccharides were (Mw>100000 Da) weighed and dissolved in 1 L of distilled water to prepare Dendrobium polysaccharide solutions, and then 20 μL of an enzyme solution was added and reacted at 37° C. for 30 min. The enzyme solution was an enzyme solution of ThDPS prepared in Example 2 diluted with deionized water to a concentration of 100 μg/mL. […] Optimum temperature determination: 10 g/L Dendrobium polysaccharides were formulated as a reaction substrate. To a reaction system was added 0.4 mL of Dendrobium polysaccharides with a final concentration of 2 g/L, 200 μL of a 500 mM Tris-HCl buffer, and 20 μl of an enzyme solution (providing 10 U of catalytic activity), and 20 μl of distilled water was added to a control group. The water was replenished to a total volume of 2 mL for all reaction solutions. After fair mixing, the mixtures were placed in water baths at 20° C., 30° C., 40° C., 50° C., […], 70° C., 80° C., and […] and incubated for 30 min. The enzyme solution was an enzyme solution of ThDPS prepared in Example 2 diluted with deionized water to a concentration of 100 μg/mL. […]

Molecule | enzymatic activity of expression product (hydrolysis of Dendrobium polysaccharides) (DNS method) [U/OD bacterial cells] | hydrolysis activity on the Dendrobium polysaccharides (in words) (expression products of recombinant E. coli, DNS method, FIG. 1) | pH of maximum activity (50 mM phosphate buffer, 37° C., 30 min) | optimal reaction temperature (2 g/L Dendrobium polysaccharides, Tris-HCl buffer, 30 min, 20-90° C.) [°C] | substrate inhibition (in words) (Dendrobium polysaccharide 0.2 g/L to 3 g/L) | increase of expression enzymatic activity level versus THGH without codon optimization (codon-optimized sequence, E. coli BL21 (DE3)) [times] | relative activity (percentage of maximum activity) (range of pH 6.0 to 10.0) | specific enzymatic activity (substrate concentration 2.4 g/L, 37° C., 30 min) [U/mg] | relative activity (percentage of maximum activity) (temperature between 40° C. and 60° C.) [%]
B1 | 68 | significant hydrolysis activity |  |  |  |  |  |  | 
B2 | 187 |  | 7.0 | 60 | no significant substrate inhibition | 2.75 | more than 90% | 5100 | ≥ 85
